Measurements: patent US20170233495

Target: All antibodies according to the invention, which were tested (Example 4)

Protein	cleavage of fluorogenic peptide OmniMMP RED by MMP catalytic domain, antibody at 100 nM
recombinant catalytic domain of human MMP12 (protein) GPVWRKHYITYRINNYTPDMNREDVDYAIRKAFQVWSNVTPLKFSKINTGMADILVVFARGAHGDFHAFDGKGGILAHAFGPGSGIGGDAHFDEDEFWTTHSGGTNLFLTAVHEIGHSLGLGHSSDPKAVMFPTYKYVDINTFRLSADDIRGIQSLYG	had no significant effect on the catalytic activity of the eight other human MMPs tested
recombinant catalytic domain of human MMP1 (protein) FVLTEGNPRWEQTHLTYRIENYTPDLPRADVDHAIEKAFQLWSNVTPLTFTKVSEGQADIMISFVRGDHRDNSPFDGPGGNLAHAFQPGPGIGGDAHFDEDERWTNNFREYNLHRVAAHELGHSLGLSHSTDIGALMYPSYTFSGDVQLAQDDIDGIQAIYGRSQNPVQP	had no significant effect on the catalytic activity of the eight other human MMPs tested
